Patent US20170015742A1 (published 2017)

T1: Recombinant rat FcRn (rat, UniProt P13599 23-298, limits assumed)
T1 construct: FcRn is normally a heterodimer with beta-2-microglobulin
T1 sequence (looked up) 1: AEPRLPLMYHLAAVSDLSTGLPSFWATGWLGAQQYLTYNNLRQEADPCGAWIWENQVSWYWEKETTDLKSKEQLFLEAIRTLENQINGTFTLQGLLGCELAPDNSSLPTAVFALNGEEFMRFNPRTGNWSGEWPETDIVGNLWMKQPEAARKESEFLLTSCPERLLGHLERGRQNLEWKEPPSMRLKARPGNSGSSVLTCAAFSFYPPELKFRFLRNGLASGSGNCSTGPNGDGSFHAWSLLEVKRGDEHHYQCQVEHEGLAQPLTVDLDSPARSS
T1 sequence (looked up) 2: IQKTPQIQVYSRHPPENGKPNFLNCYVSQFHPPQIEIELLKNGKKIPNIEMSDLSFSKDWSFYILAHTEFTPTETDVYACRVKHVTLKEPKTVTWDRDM

T2: Recombinant human FcγRIIa H131, 6xHis-tagged (human, UniProt P12318 36-218, limits assumed)
T2 construct: Captured through its 6xHis tag
T2 sequence: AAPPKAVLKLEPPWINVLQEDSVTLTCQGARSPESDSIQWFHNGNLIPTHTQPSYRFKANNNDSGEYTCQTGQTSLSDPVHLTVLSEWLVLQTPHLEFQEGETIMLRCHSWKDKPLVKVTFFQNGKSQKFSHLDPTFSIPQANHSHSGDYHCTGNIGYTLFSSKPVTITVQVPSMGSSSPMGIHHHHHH

T3: Recombinant human FcγRIIb, 6xHis-tagged (human, UniProt P31994 46-217, limits assumed)
T3 construct: Captured through its 6xHis tag; also called huFcRIIb
T3 sequence: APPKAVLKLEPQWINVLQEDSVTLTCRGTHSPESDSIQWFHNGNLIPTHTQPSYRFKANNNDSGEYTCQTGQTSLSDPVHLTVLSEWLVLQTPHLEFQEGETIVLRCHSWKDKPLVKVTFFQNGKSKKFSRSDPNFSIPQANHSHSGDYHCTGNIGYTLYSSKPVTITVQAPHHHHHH

T4: Recombinant human FcγRIIa R131, 6xHis-tagged (human, UniProt P12318 36-218, limits assumed)
T4 construct: Captured through its 6xHis tag
T4 sequence: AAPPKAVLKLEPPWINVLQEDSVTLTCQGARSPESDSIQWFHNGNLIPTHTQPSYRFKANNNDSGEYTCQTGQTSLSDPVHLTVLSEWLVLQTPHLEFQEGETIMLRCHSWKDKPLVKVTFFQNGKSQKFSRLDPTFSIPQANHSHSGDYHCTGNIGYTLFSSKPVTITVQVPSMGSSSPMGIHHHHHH


What was measured:
[1] = target: T5, Recombinant human FcγRIIIa V158, 6xHis-tagged (human, UniProt P08637 17-208, limits assumed); experiment: Biacore SPR; His-tagged huFcγRIIIa 158V captured on anti-6xHis antibody, DVD-Ig injected; steady state fit
T5 construct: Captured through its 6xHis tag; also called huFcRIIIa 158V
Experimental: (§1) A CM5 chip (GE Healthcare, Pittsburgh, Pa.) with mouse anti-6×His antibodies (“6×His” disclosed as SEQ ID NO: 405) that were directly immobilized on the chip via amine coupling according to the GE Healthcare protocol to the density of 10000RU (all flow cells) was used for experiments. Human FcγRs were captured on flow cells 2, 3 and 4. Flow cell 1 was used as a reference surface. HBS-EP+ was used as the running buffer. […] The chip surfaces were regenerated with an injection of 10 mM glycine pH 1.5 at a flow rate of 100 μL/minute over all four flow cells after each cycle.
The binding of DVD-Ig molecules to FcRn from various species and the binding of DVD-Ig molecules to various FcγRs were characterized by Biacore using the method described in Example 1.2.

[2] = target: T1, Recombinant rat FcRn; experiment: Biacore SPR; DVD-Ig immobilised by amine coupling, recombinant FcRn injected; 1:1 binding fit
Experimental: Human, cynomolgus, mouse, rat and rabbit recombinant FcRns were injected over all the flow cells at a flow rate of 50 μL/minute for 1 minute at a concentrations range of from 2.7 to 6000 nM (three fold serial dilution), followed by a 2 minute dissociation time. The surfaces were regenerated with an injection of 10 mM HCl at 100 μL/minute for 2 seconds followed by an injection of HBS-EP+, pH 7.4, at a flow rate of 50 μL/minute for 30 seconds over all four flow cells. Samples were prepared and run in two running buffer systems, pH 6.0 MES-EP+, and pH […]. Recombinant human FcγRIIIa V158 and rat and mouse FcRn data were fitted to 1:1 kinetic model. Recombinant human FcγRIIa R131 and FcγRIIa H131, FcγRIIIa F158, and recombinant human, cynomolgus and rabbit FcRn binding data were fitted to a steady state affinity model. Biacore T200 Evaluation Software version 2.0 was used to fit all the data.

[3] = target: T2, Recombinant human FcγRIIa H131, …; experiment: Biacore SPR; His-tagged human FcγR captured on anti-6xHis antibody, DVD-Ig injected
Experimental: as §1

[4] = target: T3, Recombinant human FcγRIIb, 6xHis-tagged; experiment: as above
Experimental: as §1

[5] = target: T6, Recombinant human FcγRIIIa F158, 6xHis-tagged (human, UniProt P08637 17-208, limits assumed); experiment: as above
T6 construct: Captured through its 6xHis tag
Experimental: as §1

[6] = target: T4, Recombinant human FcγRIIa R131, …; experiment: as above
Experimental: as §1

T6 sequence (P08637 other isoform, or with tags, fused parts or gaps limits assumed): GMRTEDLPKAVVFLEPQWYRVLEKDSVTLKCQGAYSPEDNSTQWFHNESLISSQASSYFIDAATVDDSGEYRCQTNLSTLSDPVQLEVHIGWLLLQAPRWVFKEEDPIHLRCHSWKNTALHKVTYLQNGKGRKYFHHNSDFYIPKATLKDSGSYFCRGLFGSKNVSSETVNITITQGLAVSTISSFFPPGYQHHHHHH
T5 sequence (P08637 other isoform, or with tags, fused parts or gaps limits assumed): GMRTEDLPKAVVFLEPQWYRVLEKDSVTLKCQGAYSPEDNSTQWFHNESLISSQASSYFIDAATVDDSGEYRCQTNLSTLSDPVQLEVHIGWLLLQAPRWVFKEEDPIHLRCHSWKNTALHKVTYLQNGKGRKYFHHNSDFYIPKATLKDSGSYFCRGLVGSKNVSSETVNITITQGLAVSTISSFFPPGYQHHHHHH

Kd [1]	binding result [2]	Binder	binding result [3]	binding result [4]	binding result [5]	binding result [6]
7.4 µM	no binding (tested: FcRn 2.7 to 6000 nM)	4G8.3-GS-9E8.4(g) (PR-1572102), anti-VEGF-A/anti-PDGF-BB DVD-Ig, hu IgG1/k L234A L235A H435A (bispecific antibody, also called 4G8.3-GS(9)-9E8.4 (g); hu VEGF 4G8.3-GS-hu PDGF 9E8.4 (germline) [hu IgG1/k]; LALA H435A) heavy: EVQLVQSGSELKKPGASVKVSCKASGYTFTNYGMYWVRQAPGQGLEWMGWINTETGKPTYADDFKGRFVFSLDTSVSTAYLQISSLKAEDTAVYYCARTNYYYRSYIFYFDYWGQGTMVTVSSGGGGSGGGGSEVTLRESGPALVKPTQTLTLTCTFSGFSLSTYGMGVGWIRQPPGKALEWLANIWWDDDKYYNPSLKNRLTISKDTSKNQVVLTMTNMDPVDTATYYCARIESIGTTYSFDYWGQGTMVTVSSASTKGPSVFPLAPSSKSTSGGTAALGCLVKDYFPEPVTVSWNSGALTSGVHTFPAVLQSSGLYSLSSVVTVPSSSLGTQTYICNVNHKPSNTKVDKKVEPKSCDKTHTCPPCPAPEAAGGPSVFLFPPKPKDTLMISRTPEVTCVVVDVSHEDPEVKFNWYVDGVEVHNAKTKPREEQYNSTYRVVSVLTVLHQDWLNGKEYKCKVSNKALPAPIEKTISKAKGQPREPQVYTLPPSREEMTKNQVSLTCLVKGFYPSDIAVEWESNGQPENNYKTTPPVLDSDGSFFLYSKLTVDKSRWQQGNVFSCSVMHEALHNAYTQKSLSLSPGK light: DTVLTQSPATLSLSPGERATLSCRASESVSTHMHWYQQKPGQAPRLLIYGASNLESGVPARFSGSGSGTDFTLTISSLEPEDFAVYFCQQSWNDPFTFGQGTKLEIKRGGSGGGGSGEFVLTQSPGTLSLSPGERATLSCERSSGDIGDSYVSWYQQKPGQAPRLVIYADDQRPSGIPDRFSGSGSGTDFTLTISRLEPEDFAVYYCQSYDINIDIVFGGGTKVEIKRTVAAPSVFIFPPSDEQLKSGTASVVCLLNNFYPREAKVQWKVDNALQSGNSQESVTEQDSKDSTYSLSSTLTLSKADYEKHKVYACEVTHQGLSSPVTKSFNRGEC	no binding (tested: DVD-Ig 31.25 to 4000 nM)	no binding (tested: DVD-Ig 31.25 to 4000 nM)	no binding (tested: DVD-Ig 31.25 to 4000 nM)	no binding (tested: DVD-Ig 31.25 to 4000 nM)
16 µM	no binding (tested: FcRn 2.7 to 6000 nM)	4G8.3-GS-9E8.4 (PR-1569574), anti-VEGF-A/anti-PDGF-BB DVD-Ig, hu IgG1/k mut(234,235) H435A (bispecific antibody, also called hVEGF 4G8.3-GS-hPDGF 9E8.4 [hu IgG1/k] mut(234, 235) H435A) heavy: EVQLVQSGSELKKPGASVKVSCKASGYTFTNYGMYWVRQAPGQGLEWMGWINTETGKPTYADDFKGRFVFSLDTSVSTAYLQISSLKAEDTAVYYCARTNYYYRSYIFYFDYWGQGTMVTVSSGGGGSGGGGSEVTLRESGPALVKPTQTLTLTCTFSGFSLSTYGMGVGWIRQPPGKALEWLANIWWDDDKYYNPSLKNRLTISKDTSKNQVVLTMTNMDPVDTATYYCARIESIGTTYSFDYWGQGTMVTVSSASTKGPSVFPLAPSSKSTSGGTAALGCLVKDYFPEPVTVSWNSGALTSGVHTFPAVLQSSGLYSLSSVVTVPSSSLGTQTYICNVNHKPSNTKVDKKVEPKSCDKTHTCPPCPAPEAAGGPSVFLFPPKPKDTLMISRTPEVTCVVVDVSHEDPEVKFNWYVDGVEVHNAKTKPREEQYNSTYRVVSVLTVLHQDWLNGKEYKCKVSNKALPAPIEKTISKAKGQPREPQVYTLPPSREEMTKNQVSLTCLVKGFYPSDIAVEWESNGQPENNYKTTPPVLDSDGSFFLYSKLTVDKSRWQQGNVFSCSVMHEALHNAYTQKSLSLSPGK light: DTVLTQSPATLSLSPGERATLSCRASESVSTHMHWYQQKPGQAPRLLIYGASNLESGVPARFSGSGSGTDFTLTISSLEPEDFAVYFCQQSWNDPFTFGQGTKLEIKRGGSGGGGSGEFVLTQSPGTLSLSPGERATLSCERSSGDIGDSYVSWYQQKPGQAPRLVIYADDQRPSGIPDRFSGSGSGTDFTLTISRLEPEDFAVYYCQSYDINIDIVFGGGTKVEIKGTVAAPSVFIFPPSDEQLKSGTASVVCLLNNFYPREAKVQWKVDNALQSGNSQESVTEQDSKDSTYSLSSTLTLSKADYEKHKVYACEVTHQGLSSPVTKSFNRGEC	no binding (tested: DVD-Ig 31.25 to 4000 nM)	no binding (tested: DVD-Ig 31.25 to 4000 nM)	no binding (tested: DVD-Ig 31.25 to 4000 nM)	no binding (tested: DVD-Ig 31.25 to 4000 nM)
6.2 µM	no binding (tested: FcRn 2.7 to 6000 nM)	4G8.3-SL-9E8.4(g) (PR-1572105), anti-VEGF-A/anti-PDGF-BB DVD-Ig, hu IgG1/k L234A L235A H435A (bispecific antibody, also called hu VEGF 4G8.3-SL-hu PDGF 9E8.4 (germline) [hu IgG1/k]; LALA H435A) heavy: EVQLVQSGSELKKPGASVKVSCKASGYTFTNYGMYWVRQAPGQGLEWMGWINTETGKPTYADDFKGRFVFSLDTSVSTAYLQISSLKAEDTAVYYCARTNYYYRSYIFYFDYWGQGTMVTVSSASTKGPEVTLRESGPALVKPTQTLTLTCTFSGFSLSTYGMGVGWIRQPPGKALEWLANIWWDDDKYYNPSLKNRLTISKDTSKNQVVLTMTNMDPVDTATYYCARIESIGTTYSFDYWGQGTMVTVSSASTKGPSVFPLAPSSKSTSGGTAALGCLVKDYFPEPVTVSWNSGALTSGVHTFPAVLQSSGLYSLSSVVTVPSSSLGTQTYICNVNHKPSNTKVDKKVEPKSCDKTHTCPPCPAPEAAGGPSVFLFPPKPKDTLMISRTPEVTCVVVDVSHEDPEVKFNWYVDGVEVHNAKTKPREEQYNSTYRVVSVLTVLHQDWLNGKEYKCKVSNKALPAPIEKTISKAKGQPREPQVYTLPPSREEMTKNQVSLTCLVKGFYPSDIAVEWESNGQPENNYKTTPPVLDSDGSFFLYSKLTVDKSRWQQGNVFSCSVMHEALHNAYTQKSLSLSPGK light: DTVLTQSPATLSLSPGERATLSCRASESVSTHMHWYQQKPGQAPRLLIYGASNLESGVPARFSGSGSGTDFTLTISSLEPEDFAVYFCQQSWNDPFTFGQGTKLEIKRTVAAPSVFIFPPEFVLTQSPGTLSLSPGERATLSCERSSGDIGDSYVSWYQQKPGQAPRLVIYADDQRPSGIPDRFSGSGSGTDFTLTISRLEPEDFAVYYCQSYDINIDIVFGGGTKVEIKRTVAAPSVFIFPPSDEQLKSGTASVVCLLNNFYPREAKVQWKVDNALQSGNSQESVTEQDSKDSTYSLSSTLTLSKADYEKHKVYACEVTHQGLSSPVTKSFNRGEC	no binding (tested: DVD-Ig 31.25 to 4000 nM)	no binding (tested: DVD-Ig 31.25 to 4000 nM)	no binding (tested: DVD-Ig 31.25 to 4000 nM)	no binding (tested: DVD-Ig 31.25 to 4000 nM)
